The target in the series is FUS165-422 (RGG1-RRM-RGG2) (UniProt P35637 165-422). Kind of series: NMR 1H-15N HSQC chemical shift changes; 1:1 molar ratio; largest shifts near residues 286, 326, 369; 20 mM MES pH 6.5, 150 mM NaCl, RNase free; CW-EPR at room temperature; NMR temperature not given in the material. Conditions: protein: recombinant; tags: His-MBP tag removed by TEV; hairpin.
Chain of FUS165-422 (RGG1-RRM-RGG2) (P35637 165-422): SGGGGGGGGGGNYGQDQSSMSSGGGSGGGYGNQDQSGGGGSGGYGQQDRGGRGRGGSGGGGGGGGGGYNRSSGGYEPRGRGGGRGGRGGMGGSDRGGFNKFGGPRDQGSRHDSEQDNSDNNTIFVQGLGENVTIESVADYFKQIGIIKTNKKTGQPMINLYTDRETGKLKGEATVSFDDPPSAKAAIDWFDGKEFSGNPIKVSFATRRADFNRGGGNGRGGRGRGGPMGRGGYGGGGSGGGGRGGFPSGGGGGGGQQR

Regarding GGCAGAUUACAAUUCUAUUUGCC (structured_RNA) [hnRNPA2/B1 stem-loop RNA], the binding result is “binds”.
